The values that follow are results of earlier work, collected in paper PMC7174325.

Data set [1] has as its target BAX (Homo sapiens) (UniProt Q07812). As to the kind of experiment: ITC.
Data set [2] concerns the target BAK (Homo sapiens) (UniProt Q16611). As to the kind of experiment: ITC.
Data set [3] has as its target BAD (Homo sapiens) (UniProt Q92934).
For data set [4] the target is unchanged. The source holds these as a separate data set.

pKd: −log10 of the molar value. Like-named read-outs stand apart in the source and are kept apart here.

Sequence of BCL-w (Q92843 2-193): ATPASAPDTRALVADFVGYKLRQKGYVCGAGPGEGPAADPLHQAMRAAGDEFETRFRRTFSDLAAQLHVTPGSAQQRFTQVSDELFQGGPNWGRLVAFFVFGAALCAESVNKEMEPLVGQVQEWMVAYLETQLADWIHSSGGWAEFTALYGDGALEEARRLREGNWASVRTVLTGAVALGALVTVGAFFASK
Sequence of BAD (Homo sapiens) (Q92934 whole entry): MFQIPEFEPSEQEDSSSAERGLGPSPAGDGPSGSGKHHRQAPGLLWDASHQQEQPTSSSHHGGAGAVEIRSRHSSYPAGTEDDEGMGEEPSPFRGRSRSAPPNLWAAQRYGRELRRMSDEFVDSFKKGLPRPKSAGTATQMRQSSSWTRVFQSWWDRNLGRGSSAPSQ
Sequence of BAX (Homo sapiens) (Q07812 whole entry): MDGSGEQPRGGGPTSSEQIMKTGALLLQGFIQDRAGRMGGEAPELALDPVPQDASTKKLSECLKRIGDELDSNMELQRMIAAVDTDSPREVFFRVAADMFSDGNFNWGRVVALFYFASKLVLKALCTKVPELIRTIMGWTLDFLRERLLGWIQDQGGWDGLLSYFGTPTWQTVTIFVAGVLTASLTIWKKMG
Sequence of BCL-w homodimer (Q92843 2-193): as the sequence (Q92843 2-193) above
Sequence of BCL-w monomer (Q92843 2-193): as above
Sequence of BAK (Homo sapiens) (Q16611 2-211): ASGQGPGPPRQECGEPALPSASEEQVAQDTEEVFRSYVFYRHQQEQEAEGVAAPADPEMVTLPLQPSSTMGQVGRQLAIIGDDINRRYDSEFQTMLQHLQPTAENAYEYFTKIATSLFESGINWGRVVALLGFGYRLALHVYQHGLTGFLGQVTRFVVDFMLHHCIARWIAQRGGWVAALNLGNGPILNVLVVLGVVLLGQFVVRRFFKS

For BCL-w (from UniProt Q92843), the pKd in data set [1] was 7.64; in data set [2], 6.94.

With BCL-w homodimer (from UniProt Q92843), the pKd in data set [3] was 6.82.

In the case of BCL-w monomer (from UniProt Q92843), in data set [4], the pKd was 7.85.
